± gives the uncertainty stated by the source.
Experiment: self-splicing fitness, log relative to wild type (ln ratio); higher = more splicing; Tetrahymena group I intron in knt gene, E. coli kanamycin selection, DiMSum; sequences stand for … in CUCUCU…GGAGGGAAAAGUUAUCAGGCAUGCACCUGGUAGCUAGUCUUUAAACCAAUAGAUUGCAUCGGUUUAAAAGGCAAGACCGUCAAAUUGCGGGAAAGGGGUCAACAGCCGUUCAGUACCAAGUCUCAGGGGAAACUUUGAGAUGGCCUUGCAAAGGGUAUGGUAAUAAGCUGACGGACAUGGUCCUAACCACGCAGCCAAGUCCUAAGUCAACAGAUCUUCUGUUGAUAUGGAUGCAGUUCACAGACUAAAUGUCGGUCGGGGAAGAUGUAUUCUUCUCAUAAGAUAUAGUCGGACCUCUCCUUAAUGGGAGCUAGCGGAUGAAGUGAUGCAACACUGGAGCCGCUGGGAACUAAUUUGUAUGCGAAAGUAUAUUGAUUAGUUUUGGAGUACUCGUGGUCG
Method in brief: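 The eight P1ex-region nucleotides of an intron in the knt kanamycin-resistance gene on pET-22b(+) were all randomised and the library put into E. coli BL21(DE3). Six replicate transformations were grown overnight at 37°C or 30°C on LB agar with or without 25 μg/mL kanamycin, together with 100 μg/mL carbenicillin, 50 μM IPTG and 0.2% rhamnose. Colonies were pooled and amplicon-sequenced on an Illumina HiSeq 2500. Fitness from DiMSum is the error-weighted combination of wild-type-normalised replicate fold changes, kanamycin over none.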

Sequence | self-splicing fitness (ln) (30 °C) | self-splicing fitness (ln) (37 °C)
UGGUAGCAAUAUUACGAGAG | -3.55 ± 0.28 | -2.16 ± 0.21
UGGUAGCAAUAUUACGAGUG | -1.17 ± 0.13 | -0.313 ± 0.16
UGGUAGCAAUAUUACGAUAU | -2.62 ± 0.16 | -1.62 ± 0.16
UGGUAGCAAUAUUACGCCCU | -0.668 ± 0.16 | 0.287 ± 0.16
UGGUAGCAAUAUUACGCGAU | -2.54 ± 0.28 | -0.974 ± 0.26
UGGUAGCAAUAUUACGCUUC | -2.63 ± 0.29 | -0.643 ± 0.35
UGGUAGCAAUAUUACGGCUU | 0.166 ± 0.18 | -0.0657 ± 0.2
UGGUAGCAAUAUUACGGUGC | -2.31 ± 0.34 | 
UGGUAGCAAUAUUACGGUUC | -3.54 ± 0.46 | -3.1 ± 0.47
UGGUAGCAAUAUUACGGUUU | -2.64 ± 0.17 | -2.6 ± 0.23
UGGUAGCAAUAUUACGUCCG | -0.727 ± 0.15 | -0.449 ± 0.24
UGUAAGCAAUAUUACGAACA | -0.358 ± 0.14 | 0.219 ± 0.17
UGUAAGCAAUAUUACGAAGA |  | -0.905 ± 0.37
UGUAAGCAAUAUUACGACAA | -0.378 ± 0.16 | -0.666 ± 0.14
UGUAAGCAAUAUUACGACAC | -2.51 ± 0.41 | 
UGUAAGCAAUAUUACGACGG | -1.46 ± 0.11 | -0.11 ± 0.12
UGUAAGCAAUAUUACGACUC | -1.52 ± 0.19 | -0.632 ± 0.25
UGUAAGCAAUAUUACGAGUU | -2.78 ± 0.13 | -2.69 ± 0.23
UGUAAGCAAUAUUACGAUAU | -3.01 ± 0.3 | -0.86 ± 0.24
UGUAAGCAAUAUUACGAUUG | -1 ± 0.081 | -0.574 ± 0.097

Sequence | self-splicing fitness (ln) (30 °C) | self-splicing fitness (ln) (37 °C)
UGUAAGCAAUAUUACGCAAU | -3.44 ± 0.18 | -3.36 ± 0.2
UGUAAGCAAUAUUACGCAUG | -1.95 ± 0.099 | 0.308 ± 0.14
UGUAAGCAAUAUUACGCCCU | -0.237 ± 0.19 | -0.575 ± 0.24
UGUAAGCAAUAUUACGCCUC | -3.28 ± 0.32 | -2.25 ± 0.24
UGUAAGCAAUAUUACGCCUU | -1.69 ± 0.35 | -1.5 ± 0.43
UGUAAGCAAUAUUACGCGAC | -2.37 ± 0.27 | -2.4 ± 0.36
UGUAAGCAAUAUUACGCGCG | -0.498 ± 0.11 | -0.329 ± 0.15
UGUAAGCAAUAUUACGCUUU | -3.09 ± 0.26 | -2.72 ± 0.27
UGUAAGCAAUAUUACGGAAA | -1.83 ± 0.17 | -1.67 ± 0.2
UGUAAGCAAUAUUACGGAAC | -2.78 ± 0.27 | -1.77 ± 0.26
UGUAAGCAAUAUUACGGAGG | -3.23 ± 0.21 | -3.5 ± 0.33
UGUAAGCAAUAUUACGGCGA | -0.0897 ± 0.085 | -0.0127 ± 0.11
UGUAAGCAAUAUUACGGGUC | -3.01 ± 0.41 | 
UGUAAGCAAUAUUACGGGUU | -3.86 ± 0.27 | -2 ± 0.2
UGUAAGCAAUAUUACGUAAU | -2.84 ± 0.095 | -1.33 ± 0.12
UGUAAGCAAUAUUACGUAGG | -1.71 ± 0.15 | -0.712 ± 0.2
UGUAAGCAAUAUUACGUCAC | -2.9 ± 0.19 | -2.28 ± 0.25
UGUAAGCAAUAUUACGUCAU | -2.39 ± 0.16 | -1.28 ± 0.19
UGUAAGCAAUAUUACGUCGG | -1.67 ± 0.13 | -1.95 ± 0.14

— the supplement of paper PMC7877785
